First the molecules themselves.
B1: Hammerhead Ribozyme (parent)
chain: ACCGGAUGUGCUUUCCGGUCUGAUGAGUCCGUGAGGACGAAACAG

Variants of B1 are the subject of this data set. The data set can be described thus: self-cleavage, relative activity (ratio to wild type); higher = more cleavage; co-transcriptional.
In the case of ACCGGAUGUGCUUUCCCGUCUGAUGAGUACGUGAGGACGAAACAG, the self-cleavage worked out at 0.419.
As for ACCGGAUGUGCUUUCCCGUCUGAUGAGUUCGUGAGGACGAAACAG, the figure is 0.542.
As for ACCGGAUGUGCUUUCCCGUCUGAUGAGUGCGUGAGGACGAAACAG, the figure is 0.349; as for ACCGGAUGUGCUUUCCCGUCUGAUGAGUCGGUGAGGACGAAACAG, 0.398.
As for ACCGGAUGUGCUUUCCCGUCUGAUGAGUCAGUGAGGACGAAACAG, the figure is 0.458; as for ACCGGAUGUGCUUUCCCGUCUGAUGAGUCUGUGAGGACGAAACAG, 0.545.
ACCGGAUGUGCUUUCCAGUCUGAUGAGUCCGUGAGGACUAAACAG: the self-cleavage was determined as 0.316.
As for ACCGGAUGUGCUUUCCAGUCUGAUGAGUCCGUGAGGACAAAACAG, the figure is 0.326; as for ACCGGAUGUGCUUUCCAGUCUGAUGAGUCCGUGAGGACCAAACAG, 0.333; as for ACCGGAUGUGCUUUCCAGUCUCAUGAGUCCGUGAGGACGAAACAG, 0.319.
As for ACCGGAUGUGCUUUCCAGUCUUAUGAGUCCGUGAGGACGAAACAG, the figure is 0.345; as for ACCGGAUGUGCUUUCCAGUCUAAUGAGUCCGUGAGGACGAAACAG, 0.315.
As for ACCGGAUGUGCUUUCCAGUCUGAUGAGUCCGUGAGGAGGAAACAG, the figure is 0.478; as for ACCGGAUGUGCUUUCCAGUCUGAUGAGUCCGUGAGGAUGAAACAG, 0.586; as for ACCGGAUGUGCUUUCCAGUCUGAUGAGUCCGUGAGGAAGAAACAG, 0.488.
ACCGGAUGUGCUUUCCCGUCUGAUGAGUCCGUGAGGAGGAAACAG: the self-cleavage came to 0.452.
Turning to ACCGGAUGUGCUUUCCCGUCUGAUGAGUCCGUGAGGAUGAAACAG, the self-cleavage came to 0.453.
For the variant ACCGGAUGUGCUUUCCCGUCUGAUGAGUCCGUGAGGAAGAAACAG, the self-cleavage turned out to be 0.451.
As for ACCGGAUGUGCUUUCCCGUCUGAUGAGUCCGUGAGGACGAACCAG, the figure is 0.316; as for ACCGGAUGUGCUUUCCCGUCUGAUGAGUCCGUGAGGACGAAUCAG, 0.284.
With ACCGGAUGUGCUUUCCCGUCUGAUGAGUCCGUGAGGACGAAGCAG, the self-cleavage amounted to 0.335.
As for ACCGGAUGUGCUUUCCCGUCUGAUGAGUCCGUGAGGACGGAACAG, the figure is 0.373; as for ACCGGAUGUGCUUUCCCGUCUGAUGAGUCCGUGAGGACGCAACAG, 0.328; as for ACCGGAUGUGCUUUCCCGUCUGAUGAGUCCGUGAGGACGUAACAG, 0.3.
As for ACCGGAUGUGCUUUCCAGUCUGACGAGUCCGUGAGGACGAAACAG, the figure is 0.88.
As for ACCGGAUGUGCUUUCCAGUCUGAAGAGUCCGUGAGGACGAAACAG, the figure is 0.704; as for ACCGGAUGUGCUUUCCAGUCUGAGGAGUCCGUGAGGACGAAACAG, 0.592.
Take ACCGGAUGUGCUUUCCAGUCUGAUGAGUCCGUGAGGACGAAACAA: the self-cleavage is 0.413.
As for ACCGGAUGUGCUUUCCAGUCUGAUGAGUCCGUGAGGACGAAACAC, the figure is 0.385; as for ACCGGAUGUGCUUUCCAGUCUGAUGAGUCCGUGAGGACGAAACAU, 0.411; as for ACCGGAUGUGCUUUCCCGUCUAAUGAGUCCGUGAGGACGAAACAG, 0.274.
As for ACCGGAUGUGCUUUCCCGUUUGAUGAGUCCGUGAGGACGAAACAG, the figure is 0.331; as for ACCGGAUGUGCUUUCCCGUAUGAUGAGUCCGUGAGGACGAAACAG, 0.313.
As for ACCGGAUGUGCUUUCCCGUGUGAUGAGUCCGUGAGGACGAAACAG, the figure is 0.279.
As for ACCGGAUGUGCUUUCCACUCUGAUGAGUCCGUGAGGACGAAACAG, the self-cleavage came to 0.341.
As for ACCGGAUGUGCUUUCCAUUCUGAUGAGUCCGUGAGGACGAAACAG, the figure is 0.318; as for ACCGGAUGUGCUUUCCAAUCUGAUGAGUCCGUGAGGACGAAACAG, 0.294.
As for ACCGGAUGUGCUUUCCAGUCUGAUGAGUCCGUGAGGACGAACCAG, the figure is 0.341.
As for ACCGGAUGUGCUUUCCAGUCUGAUGAGUCCGUGAGGACGAAUCAG, the figure is 0.396; as for ACCGGAUGUGCUUUCCAGUCUGAUGAGUCCGUGAGGACGAAGCAG, 0.327; as for ACCGGAUGUGCUUUCCAGUCUGAUGAGUCCGUGAGGACGACACAG, 0.259.
With ACCGGAUGUGCUUUCCAGUCUGAUGAGUCCGUGAGGACGAGACAG, the self-cleavage stood at 0.332.
As for ACCGGAUGUGCUUUCCAGUCUGAUGAGUCCGUGAGGACGAUACAG, the figure is 0.347; as for ACCGGAUGUGCUUUCCCGUCUGAUGAGUCCGUGAGGACGAAAUAG, 0.404.
As for ACCGGAUGUGCUUUCCCGUCUGAUGAGUCCGUGAGGACGAAAAAG, the figure is 0.319; as for ACCGGAUGUGCUUUCCCGUCUGAUGAGUCCGUGAGGACGAAAGAG, 0.311.
As for ACCGGAUGUGCUUUCCAGUCUGAUAAGUCCGUGAGGACGAAACAG, the figure is 0.353; as for ACCGGAUGUGCUUUCCAGUCUGAUCAGUCCGUGAGGACGAAACAG, 0.321.
Consider ACCGGAUGUGCUUUCCAGUCUGAUUAGUCCGUGAGGACGAAACAG, for which the self-cleavage was 0.372.
Consider ACCGGAUGUGCUUUCCAGUCUGAUGAGUCCGUUAGGACGAAACAG, for which the self-cleavage was found to be 0.751.
Turning to ACCGGAUGUGCUUUCCAGUCUGAUGAGUCCGUAAGGACGAAACAG, the self-cleavage was 0.794.
As for ACCGGAUGUGCUUUCCAGUCUGAUGAGUCCGUCAGGACGAAACAG, the figure is 0.713; as for ACCGGAUGUGCUUUCCCGUCUGAUGAGUCCGUGAGGACGAAACAG, 0.575; as for ACCGGAUGUGCUUUCCCGUCUGAUGAGUCCGUGAGGUCGAAACAG, 0.359.
As for ACCGGAUGUGCUUUCCCGUCUGAUGAGUCCGUGAGGGCGAAACAG, the figure is 0.355; as for ACCGGAUGUGCUUUCCCGUCUGAUGAGUCCGUGAGGCCGAAACAG, 0.505.
As for ACCGGAUGUGCUUUCCAGUCCGAUGAGUCCGUGAGGACGAAACAG, the figure is 0.294.
